Measured values as given in patent publication US20110129459A1 (Chugai, published 2011).
Positions count from the first letter of the chain named. Like-named read-outs stand apart in the source and are kept apart here. One block for each binder: values may come before it.

How the values were obtained:
[1] = molecular target: T1, soluble human FcRn (FcRn extracellular domain / beta2-microglobulin complex) (human, UniProt P55899 24-290; P61769 21-119); experiment: SPR, Biacore 3000; antibody captured on chip, soluble human FcRn as analyte, steady state affinity, pH 6.0
T1 construct: The expression constructs contain the signal regions (FcRn Met1-Leu290; beta2-microglobulin Met1-Met119); also called hFcRn
Method: The binding to human FcRn was assessed using Biacore 3000. An antibody was bound to Protein L or rabbit anti-human IgG Kappa chain antibody immobilized onto a sensor chip, human FcRn was added as an analyte for interaction with the antibody, and the affinity (KD) was calculated from the amount of bound human FcRn. Specifically, Protein L was immobilized onto sensor chip CM5 (BIACORE) by the amine coupling method using 50 mM Na-phosphate buffer (pH 6.0) containing 150 mM NaCl as the running buffer. Then, an antibody was diluted with the running buffer containing 0.02% Tween20, and injected and allowed to bind to the chip. Human FcRn was then injected to assess the binding activity of the antibody to the human FcRn.
The affinity was calculated using BIAevaluation software. The obtained sensorgram was used to calculate the amount of hFcRn bound to the antibody immediately before the end of human FcRn injection. This was fitted by the steady state affinity method to calculate the affinity of human FcRn for the antibody.

[2] = molecular target: T2, rhNR10 (recombinant human NR10) (human, UniProt Q8NI17 20-519, limits assumed); experiment: SPR, Biacore T100; antibody captured on Protein A, rhNR10 as analyte
T2 construct: also called IL-31 receptor; IL31RA
T2 sequence: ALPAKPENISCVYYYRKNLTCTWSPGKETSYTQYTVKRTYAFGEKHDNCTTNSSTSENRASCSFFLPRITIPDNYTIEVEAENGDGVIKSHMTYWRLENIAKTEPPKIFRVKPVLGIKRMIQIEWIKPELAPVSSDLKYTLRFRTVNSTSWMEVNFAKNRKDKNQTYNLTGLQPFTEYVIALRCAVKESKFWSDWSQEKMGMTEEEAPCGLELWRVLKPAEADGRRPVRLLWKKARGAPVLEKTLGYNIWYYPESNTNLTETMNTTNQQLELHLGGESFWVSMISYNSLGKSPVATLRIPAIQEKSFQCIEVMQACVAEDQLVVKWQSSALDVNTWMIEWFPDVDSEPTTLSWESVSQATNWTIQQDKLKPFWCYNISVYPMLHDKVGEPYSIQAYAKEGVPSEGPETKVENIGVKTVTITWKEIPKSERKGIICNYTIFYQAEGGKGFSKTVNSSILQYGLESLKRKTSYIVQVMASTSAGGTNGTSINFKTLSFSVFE
Method: (§1) Kinetic analysis of the antigen-antibody reaction was carried out using Biacore T100 (GE Healthcare Biosciences). The antigen-antibody interaction was measured by immobilizing rec-Protein A (hereinafter Protein A) (ZYMED) onto a sensor chip, capturing an antibody on the immobilized Protein A, and then reacting the antigen as an analyte. Various concentrations of rhNR10 were used as the antigen. The kinetic parameters, association rate constant kₐ (1/Ms) and dissociation rate constant kd (1/s), were calculated from the sensorgrams obtained by the measurement. Then, KD (M) was determined based on the rate constants. Each parameter was determined using Biacore T100 Evaluation Software version 1.1 (GE Healthcare Biosciences).
(§2) The running buffer used was HBS-EP+. Each antibody was prepared at 0.25 μg/ml, or prepared so that about 100 RU would bind to Protein A. rhNR10 used as an analyte was prepared at 0, 38.5, 77.0, and 154 nM, or at 0, 19.25, and 77.01 nM using HBS-EP+. In the measurement, first, the antibody solution was captured on Protein A, and an analyte solution was reacted at a flow rate of 20 μL/min for three minutes. Then, the solution was switched to HBS-EP+, and the dissociation phase was measured for five minutes. After measurement of the dissociation phase, the sensor chip was regenerated by washing with 10 mM glycine-HCl (pH 1.5). The obtained sensorgrams were kinetically analyzed using the Biacore-specific data analysis software, Biacore T100 Evaluation Software Version 1.1.

[3] = molecular target: T3, cytoplasmic domain-lacking human NR10 on CHO cells (hNR10-expressing CHO cells) (human, UniProt Q8NI17 20-553); experiment: FMAT competition on hNR10-expressing CHO cells: antibody titrated against FMAT Blue-labeled hIL-31; FL1 = cell-bound labeled hIL-31; mean±S.D. (n=3)
T3 construct: also called NR10-expressing cells
T3 sequence: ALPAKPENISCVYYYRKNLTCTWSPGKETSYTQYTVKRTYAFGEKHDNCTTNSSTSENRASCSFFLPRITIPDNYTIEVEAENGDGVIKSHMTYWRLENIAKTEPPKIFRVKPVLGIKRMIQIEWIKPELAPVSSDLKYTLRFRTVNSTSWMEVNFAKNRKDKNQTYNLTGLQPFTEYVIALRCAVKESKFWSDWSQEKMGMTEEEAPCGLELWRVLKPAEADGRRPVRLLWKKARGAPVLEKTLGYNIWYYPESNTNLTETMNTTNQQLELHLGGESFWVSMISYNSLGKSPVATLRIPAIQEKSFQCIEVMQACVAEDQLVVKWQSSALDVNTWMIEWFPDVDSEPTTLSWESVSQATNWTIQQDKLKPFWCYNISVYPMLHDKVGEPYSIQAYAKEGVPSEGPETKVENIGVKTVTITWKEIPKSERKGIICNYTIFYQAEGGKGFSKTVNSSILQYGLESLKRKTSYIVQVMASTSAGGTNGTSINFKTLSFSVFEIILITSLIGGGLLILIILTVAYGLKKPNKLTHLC
Method: Antibodies were assessed for the activity of inhibiting the IL-31/NR10 binding by using hNR10-expressing CHO cells as described below. The chimeric NS22 antibody and NS22_H0L0 (H chain, H0-SKSC/SEQ ID NO: 54; L chain, L0/SEQ ID NO: 56) were diluted at an appropriate concentration using Assay buffer (10 mM HEPES, 140 mM NaCl, 2.5 mM CaCl₂, 3 mM MgCl₂, 2% FBS, 0.01% NaN₃, pH7.4), and further eight serial dilutions were prepared at a common dilution ration of 2. The dilutions were added at 40 μl/well to plates (96-Well FMAT Plates, Applied Biosystems). Then, FMAT Blue-labeled hIL-31 was diluted 400 times with Assay buffer, and added at 20 μl/well. Finally, a cell suspension adjusted to 2.5×10⁵ cells/ml using Assay buffer was added at 40 μl/well (final 1×10⁴ cells/well). Two hours after addition of cells, the fluorescence (FL1) was measured using the 8200 Cellular Detection System (Applied Biosystems).
Each variant was tested for the activity of inhibiting the hIL-31/hNR10 binding by using FMAT. The test was carried out according to the method as described in Example 4.

[4] = molecular target: T2, rhNR10 (recombinant human NR10); experiment: SPR, Biacore T100; antibody captured on Protein A, rhNR10 as analyte; remark: listed apart in the source
Method: as §1, §2

[5] = molecular target: T2, rhNR10 (recombinant human NR10); experiment: as above; remark: listed apart in the source
Method: as §1, §2

[6] = molecular target: T2, rhNR10 (recombinant human NR10); experiment: as above; remark: listed apart in the source
Method: as §1, §2

binding result [3]: binds
B3: Hp7 variant of H0L0 (antibody, V domains shown)
VH: QVQLVQSGAEVKKPGASVKVSCKASGYTFTGYIMNWVRQAPGQGLEWMGEINPYNGGTSYNQKFKGRVTITADESTSTAYMELSSLRSEDTAVYYCARDGYDDGPYTMDYWGQGTLVTVSS
VL: DIQMTQSPSSLSASVGDRVTITCRTSENIYSFLAWYQQKPGKAPKLLIYNAKTLAKGVPSRFSGSGSGTDFTLTISSLQPEDFATYYCQHHYESPLTFGGGTKVEIK

binding result [3]: binds
B4: Hp5 variant of H0L0 (antibody, V domains shown)
VH: B3 VH with R38Q, A40S, E50L
VL: B3 VL

binding result [3]: binds
B5: Lp2 variant of H0L0 (antibody, V domains shown)
VH: B3 VH with E50L
VL: B3 VL with N28D

binding result [3]: binds
B6: Hp13 variant of H0L0 (antibody, V domains shown)
VH: B3 VH with E50L, K65Q, G66D
VL: B3 VL

binding result [3]: binds
B8: Lp7 variant of H0L0 (antibody, V domains shown)
VH: B3 VH with E50L
VL: B3 VL with L54E

binding result [3]: binds
B9: Lp1 variant of H0L0 (antibody, V domains shown)
VH: B3 VH with E50L
VL: B3 VL with R24Q

binding result [3]: binds
B13: Hp8 variant of H0L0 (antibody, V domains shown)
VH: B3 VH with E50L, N52D
VL: B3 VL

binding result [3]: binds
B14: Lp4 variant of H0L0 (antibody, V domains shown)
VH: B3 VH with E50L
VL: B3 VL with K52Q

binding result [3]: binds
B15: Lp3 variant of H0L0 (antibody, V domains shown)
VH: B3 VH with E50L
VL: B3 VL with N50D

IC50 (read off the curve) [3]: ~0.1 µg/mL
B18: Hp9 variant of H0L0 (antibody, V domains shown)
VH: B3 VH with E50L, K63Q
VL: B3 VL

The remaining lines, values behind:

B1: H0L0-IgG1 (antibody)
heavy: not shown
light: DIQMTQSPSSLSASVGDRVTITCRTSENIYSFLAWYQQKPGKAPKLLIYNAKTLAKGVPSRFSGSGSGTDFTLTISSLQPEDFATYYCQHHYESPLTFGGGTKVEIKRTVAAPSVFIFPPSDEQLKSGTASVVCLLNNFYPREAKVQWKVDNALQSGNSQESVTEQDSKDSTYSLSSTLTLSKADYEKHKVYACEVTHQGLSSPVTKSFNRGEC
Kd [1]: 1070 nM

B2: Ha401La402 (Ha401-SKSC / La402) (antibody, V domains shown)
VH: B3 VH with I33V, M34I, E50L, S59D
VL: DIQMTQSPSSLSASVGDRVTITCQTSENIYRFVAWYQQKPGKAPKLLIYNAKTLAKGVPSRFSGSGSGTDFTLTISSLQPEDFATYYCQHHYDSPLTFGGGTKVEIKR
Kd [2]: 0.5 nM
koff [2]: 0.00029 s⁻¹
kon [2]: 580000 M⁻¹ s⁻¹

B7: H17L11 (H17-M58 / L11) (antibody, V domains shown)
VH: B3 VH with I33V, M34L, E50L, S59D, Q62P, K63Q, K65Q, G66D
VL: B2 VL with N28D, K52Q, L54E, K56Q
Kd [4]: 0.62 nM
koff [4]: 0.00026 s⁻¹
kon [4]: 430000 M⁻¹ s⁻¹

B10: Hp6 variant of H0L0 (antibody, V domains shown)
VH: B3 VH with E50L, Q62D
VL: B3 VL
IC50 (read off the curve) [3]: ~0.1 µg/mL

B11: H19L12 (H19-M58 / L12) (antibody, V domains shown)
VH: B3 VH with I33A, E50L, S59D, Q62P, K63Q, K65Q, G66D
VL: B2 VL with N28D, R31S, K52Q, L54E, K56Q
Kd [5]: 5.1 nM
koff [5]: 0.0012 s⁻¹
kon [5]: 230000 M⁻¹ s⁻¹

B12: H0L17 (H0-M58 / L17) (antibody, V domains shown)
VH: B3 VH with E50L
VL: B2 VL with T25A, N28D, R31S, K52Q, L54E, K56Q
Kd [6]: 2.1 nM
koff [6]: 0.00081 s⁻¹
kon [6]: 390000 M⁻¹ s⁻¹

B16: Hp3Lp15 (Hp3-SKSC / Lp15) (antibody, V domains shown)
VH: B3 VH with E50L, K63Q, K65Q, G66D
VL: B2 VL with N28D, R31S, V33L, K52Q, L54E, K56Q, D93E
notes: also called Hp3Lp15-SKSC
Kd [5]: 3.9 nM
koff [5]: 0.0016 s⁻¹
kon [5]: 420000 M⁻¹ s⁻¹

B17: H0L12 (H0-M58 / L12) (antibody, V domains shown)
VH: B3 VH with E50L
VL: B2 VL with N28D, R31S, K52Q, L54E, K56Q
Kd [6]: 2 nM
koff [6]: 0.00074 s⁻¹
kon [6]: 380000 M⁻¹ s⁻¹
fold affinity relative to H0L0 [5]: ~2 fold
